Data reported in paper PMC9482650, “Quantitative fragmentomics allow affinity mapping of interactomes” (Nature Communications, 2022).

What was measured:
Test in all cases: holdup assay
Design in all cases: key: below the threshold = too weak to quantify, mostly under pKd 3.1 to 4
Inadl_9, Q8NI35 = molecular target: Inadl_9, Q8NI35
LIN7B, Q9HAP6 = molecular target: T1, LIN7B, Q9HAP6
T1 sequence (Q9HAP6 88-185, limits assumed, looked up): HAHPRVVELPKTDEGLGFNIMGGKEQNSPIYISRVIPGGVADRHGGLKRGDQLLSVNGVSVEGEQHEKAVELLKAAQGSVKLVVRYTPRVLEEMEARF

Inadl_6, Q8NI35 = molecular target: Inadl_6, Q8NI35
DLG4_3, P78352 = molecular target: DLG4_3, P78352
FRMPD3, Q5JV73 = molecular target: FRMPD3, Q5JV73
PARD3_3, Q8TEW0 = molecular target: PARD3_3, Q8TEW0
PARD3B_1, Q8TEW8 = molecular target: T2, PARD3B_1, Q8TEW8
T2 sequence (Q8TEW8 196-299, limits assumed, looked up): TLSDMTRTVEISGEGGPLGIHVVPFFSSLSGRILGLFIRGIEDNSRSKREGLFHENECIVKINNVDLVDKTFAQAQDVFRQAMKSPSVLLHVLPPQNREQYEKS

SNTG2, Q9NY99 = molecular target: T3, SNTG2, Q9NY99
T3 sequence (Q9NY99 68-166, limits assumed, looked up): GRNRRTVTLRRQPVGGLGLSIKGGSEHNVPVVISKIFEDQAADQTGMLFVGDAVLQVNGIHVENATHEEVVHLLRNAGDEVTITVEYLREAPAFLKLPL

MAGI1_2, Q96QZ7 = molecular target: MAGI1_2, Q96QZ7
NHERF2_2, Q15599 = molecular target: NHERF2_2, Q15599
TJP2_1, Q9UDY2 = molecular target: TJP2_1, Q9UDY2
GRASP, Q7Z6J2 = molecular target: GRASP, Q7Z6J2
DLG5_1, Q8TDM6 = molecular target: DLG5_1, Q8TDM6
SYNJ2BP, P57105 = molecular target: T4, SYNJ2BP, P57105
T4 sequence (P57105 8-110, limits assumed, looked up): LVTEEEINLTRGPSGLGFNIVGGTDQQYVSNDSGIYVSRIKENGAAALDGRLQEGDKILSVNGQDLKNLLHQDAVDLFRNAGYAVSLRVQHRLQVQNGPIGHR

IL16_4, Q14005 = molecular target: IL16_4, Q14005
RADIL, Q96JH8 = molecular target: T5, RADIL, Q96JH8
T5 sequence (Q96JH8 971-1071, limits assumed, looked up): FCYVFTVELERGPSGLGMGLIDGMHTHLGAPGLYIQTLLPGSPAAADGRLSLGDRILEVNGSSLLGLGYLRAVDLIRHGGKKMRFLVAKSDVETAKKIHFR

DLG1_3, Q12959 = molecular target: DLG1_3, Q12959
MPP6, Q9NZW5 = molecular target: T6, MPP6, Q9NZW5
T6 sequence (Q9NZW5 125-219, limits assumed, looked up): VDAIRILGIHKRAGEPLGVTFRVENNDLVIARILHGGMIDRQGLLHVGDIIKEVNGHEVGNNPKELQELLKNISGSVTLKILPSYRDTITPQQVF

NHERF4_1, Q86UT5-2 = molecular target: NHERF4_1, Q86UT5-2
NOS1, P29475 = molecular target: NOS1, P29475
SNX27, Q96L92 = molecular target: SNX27, Q96L92
APBA3_1, O96018 = molecular target: T7, APBA3_1, O96018
T7 sequence (O96018 389-490, limits assumed, looked up): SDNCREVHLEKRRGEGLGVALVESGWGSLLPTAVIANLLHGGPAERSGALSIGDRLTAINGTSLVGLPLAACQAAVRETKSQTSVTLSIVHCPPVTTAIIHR

DLG3_3, Q92796 = molecular target: T8, DLG3_3, Q92796
T8 sequence (Q92796 374-475, limits assumed, looked up): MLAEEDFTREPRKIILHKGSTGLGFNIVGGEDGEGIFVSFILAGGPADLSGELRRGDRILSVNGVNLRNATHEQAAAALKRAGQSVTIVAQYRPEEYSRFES

Inadl_2, Q8NI35 = molecular target: Inadl_2, Q8NI35
MAST1, Q9Y2H9 = molecular target: MAST1, Q9Y2H9
LRRC7, Q96NW7 = molecular target: T9, LRRC7, Q96NW7
T9 sequence (Q96NW7 1440-1537, limits assumed, looked up): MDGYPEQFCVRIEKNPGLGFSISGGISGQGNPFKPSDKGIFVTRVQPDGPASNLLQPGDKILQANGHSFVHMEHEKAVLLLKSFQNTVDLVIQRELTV

MPDZ_10, O75970 = molecular target: T10, MPDZ_10, O75970
T10 sequence (O75970 1624-1722, limits assumed, looked up): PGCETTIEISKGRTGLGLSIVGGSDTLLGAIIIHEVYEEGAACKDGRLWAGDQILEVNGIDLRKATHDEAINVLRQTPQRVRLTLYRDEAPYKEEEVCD

AHNAK1, Q09666 = molecular target: AHNAK1, Q09666
[1] = plain residues with an end cap or a label only (N-terminal biotin on a linker: ado-ado)
[2] = plain residues with an end cap or a label only (N-terminal biotin on a linker: (peg)3)

Chain of NOS1, P29475 (P29475 9-101): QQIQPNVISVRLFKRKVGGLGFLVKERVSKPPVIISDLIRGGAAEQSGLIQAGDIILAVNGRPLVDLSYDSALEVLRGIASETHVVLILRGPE
Chain of MAST1, Q9Y2H9 (Q9Y2H9 962-1065): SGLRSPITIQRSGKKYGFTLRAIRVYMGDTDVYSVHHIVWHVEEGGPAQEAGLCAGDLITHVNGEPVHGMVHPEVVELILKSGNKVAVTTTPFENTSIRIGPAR
Chain of Inadl_6, Q8NI35 (Q8NI35 1058-1167): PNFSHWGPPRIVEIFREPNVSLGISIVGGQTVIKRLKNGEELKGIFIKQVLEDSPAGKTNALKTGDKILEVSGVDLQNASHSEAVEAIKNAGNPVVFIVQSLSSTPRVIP
Chain of AHNAK1, Q09666 (Q09666 4-100): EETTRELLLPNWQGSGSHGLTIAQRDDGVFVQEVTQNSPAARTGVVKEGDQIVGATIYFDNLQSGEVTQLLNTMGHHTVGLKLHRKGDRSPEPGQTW
Chain of DLG5_1, Q8TDM6 (Q8TDM6 617-713): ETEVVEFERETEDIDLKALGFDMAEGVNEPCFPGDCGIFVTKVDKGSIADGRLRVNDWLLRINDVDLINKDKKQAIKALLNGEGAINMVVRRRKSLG
Chain of Inadl_2, Q8NI35 (Q8NI35 238-335): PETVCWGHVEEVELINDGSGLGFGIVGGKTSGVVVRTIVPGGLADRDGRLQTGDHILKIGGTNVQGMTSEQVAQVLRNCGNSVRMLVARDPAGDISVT
Chain of DLG4_3, P78352 (P78352 306-403): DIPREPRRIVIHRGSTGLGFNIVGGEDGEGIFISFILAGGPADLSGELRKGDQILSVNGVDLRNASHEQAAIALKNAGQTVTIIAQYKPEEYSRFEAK
Chain of NHERF4_1, Q86UT5-2 (Q86UT5 other isoform, or with tags, fused parts or gaps): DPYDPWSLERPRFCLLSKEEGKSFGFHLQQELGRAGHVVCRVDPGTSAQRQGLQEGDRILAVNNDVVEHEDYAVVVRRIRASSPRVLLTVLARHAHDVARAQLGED
Chain of FRMPD3, Q5JV73 (Q5JV73 12-100): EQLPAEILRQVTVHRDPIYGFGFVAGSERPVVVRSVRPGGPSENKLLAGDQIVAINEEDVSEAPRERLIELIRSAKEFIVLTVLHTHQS
Chain of MAGI1_2, Q96QZ7 (Q96QZ7 456-580): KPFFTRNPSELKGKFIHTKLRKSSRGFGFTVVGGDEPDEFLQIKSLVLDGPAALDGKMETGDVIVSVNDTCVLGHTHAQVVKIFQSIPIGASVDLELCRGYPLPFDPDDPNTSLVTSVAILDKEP
Chain of TJP2_1, Q9UDY2 (Q9UDY2 24-128): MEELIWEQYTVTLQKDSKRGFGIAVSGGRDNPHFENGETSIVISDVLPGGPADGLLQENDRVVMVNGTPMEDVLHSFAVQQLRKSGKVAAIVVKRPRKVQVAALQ
Chain of DLG1_3, Q12959 (Q12959 457-571): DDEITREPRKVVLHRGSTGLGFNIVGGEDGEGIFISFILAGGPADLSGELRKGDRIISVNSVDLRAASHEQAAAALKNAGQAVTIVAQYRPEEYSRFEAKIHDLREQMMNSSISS
Chain of PARD3_3, Q8TEW0 (Q8TEW0 582-685): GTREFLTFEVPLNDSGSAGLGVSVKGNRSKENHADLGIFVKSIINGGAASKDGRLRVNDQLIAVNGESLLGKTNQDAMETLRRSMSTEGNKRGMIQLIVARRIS
Chain of NHERF2_2, Q15599 (Q15599 142-238): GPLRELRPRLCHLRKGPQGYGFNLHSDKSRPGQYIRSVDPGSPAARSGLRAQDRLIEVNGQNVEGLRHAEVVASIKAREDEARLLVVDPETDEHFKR
Chain of GRASP, Q7Z6J2 (Q7Z6J2 96-193): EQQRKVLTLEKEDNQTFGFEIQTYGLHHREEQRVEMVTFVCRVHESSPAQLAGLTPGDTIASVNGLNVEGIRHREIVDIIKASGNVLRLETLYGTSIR
Chain of IL16_4, Q14005 (Q14005 1229-1329): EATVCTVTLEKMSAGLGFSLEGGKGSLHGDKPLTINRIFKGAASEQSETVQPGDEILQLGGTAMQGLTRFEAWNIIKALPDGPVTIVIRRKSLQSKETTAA
Chain of Inadl_9, Q8NI35 (Q8NI35 1530-1615): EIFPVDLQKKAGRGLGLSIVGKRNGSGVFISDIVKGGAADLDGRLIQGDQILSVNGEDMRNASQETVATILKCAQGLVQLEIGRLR

AEASVACSLC [PTGIR, P43119]
pKd (Inadl_9, Q8NI35; [1]): below the threshold | pKd (LIN7B, Q9HAP6; [1]): below the threshold | pKd (Inadl_6, Q8NI35; [1]): below the threshold | pKd (DLG4_3, P78352; [1]): below the threshold | pKd (FRMPD3, Q5JV73; [1]): below the threshold | pKd (PARD3_3, Q8TEW0; [1]): below the threshold | pKd (PARD3B_1, Q8TEW8; [1]): below the threshold | pKd (SNTG2, Q9NY99; [1]): below the threshold | pKd (MAGI1_2, Q96QZ7; [1]): below the threshold | pKd (NHERF2_2, Q15599; [1]): below the threshold | pKd (TJP2_1, Q9UDY2; [1]): below the threshold | pKd (GRASP, Q7Z6J2; [1]): 4.43 | pKd (DLG5_1, Q8TDM6; [1]): below the threshold | pKd (SYNJ2BP, P57105; [1]): below the threshold | pKd (IL16_4, Q14005; [1]): below the threshold | pKd (RADIL, Q96JH8; [1]): 3.94 | pKd (DLG1_3, Q12959; [1]): below the threshold | pKd (MPP6, Q9NZW5; [1]): below the threshold | pKd (NHERF4_1, Q86UT5-2; [1]): 4.54 | pKd (NOS1, P29475; [1]): below the threshold | pKd (SNX27, Q96L92; [1]): 4.4 | pKd (APBA3_1, O96018; [1]): below the threshold | pKd (DLG3_3, Q92796; [1]): below the threshold | pKd (Inadl_2, Q8NI35; [1]): below the threshold | pKd (MAST1, Q9Y2H9; [1]): below the threshold | pKd (LRRC7, Q96NW7; [1]): below the threshold | pKd (MPDZ_10, O75970; [1]): 3.47 | pKd (AHNAK1, Q09666; [1]): below the threshold

LKDDELKTKL [SLCO1A2, P46721]
pKd (Inadl_9, Q8NI35; [1]): below the threshold | pKd (LIN7B, Q9HAP6; [1]): below the threshold | pKd (Inadl_6, Q8NI35; [1]): below the threshold | pKd (DLG4_3, P78352; [1]): below the threshold | pKd (FRMPD3, Q5JV73; [1]): below the threshold | pKd (PARD3_3, Q8TEW0; [1]): below the threshold | pKd (PARD3B_1, Q8TEW8; [1]): 3.84 | pKd (SNTG2, Q9NY99; [1]): below the threshold | pKd (MAGI1_2, Q96QZ7; [1]): below the threshold | pKd (NHERF2_2, Q15599; [1]): 4.67 | pKd (TJP2_1, Q9UDY2; [1]): below the threshold | pKd (GRASP, Q7Z6J2; [1]): 4.37 | pKd (DLG5_1, Q8TDM6; [1]): below the threshold | pKd (SYNJ2BP, P57105; [1]): below the threshold | pKd (IL16_4, Q14005; [1]): 3.61 | pKd (RADIL, Q96JH8; [1]): below the threshold | pKd (DLG1_3, Q12959; [1]): below the threshold | pKd (MPP6, Q9NZW5; [1]): below the threshold | pKd (NHERF4_1, Q86UT5-2; [1]): 3.91 | pKd (NOS1, P29475; [1]): 3.5 | pKd (SNX27, Q96L92; [1]): 3.8 | pKd (APBA3_1, O96018; [1]): below the threshold | pKd (DLG3_3, Q92796; [1]): below the threshold | pKd (Inadl_2, Q8NI35; [1]): below the threshold | pKd (MAST1, Q9Y2H9; [1]): 4.64 | pKd (LRRC7, Q96NW7; [1]): below the threshold | pKd (MPDZ_10, O75970; [1]): below the threshold | pKd (AHNAK1, Q09666; [1]): below the threshold

RRRRSQSRESQC [HBV-HBc, P03193]
pKd (Inadl_9, Q8NI35; [2]): below the threshold | pKd (LIN7B, Q9HAP6; [2]): 3.7 | pKd (Inadl_6, Q8NI35; [2]): below the threshold | pKd (DLG4_3, P78352; [2]): 4.58 | pKd (FRMPD3, Q5JV73; [2]): below the threshold | pKd (PARD3_3, Q8TEW0; [2]): below the threshold | pKd (PARD3B_1, Q8TEW8; [2]): below the threshold | pKd (SNTG2, Q9NY99; [2]): 4.21 | pKd (MAGI1_2, Q96QZ7; [2]): 4.07 | pKd (NHERF2_2, Q15599; [2]): below the threshold | pKd (TJP2_1, Q9UDY2; [2]): below the threshold | pKd (GRASP, Q7Z6J2; [2]): below the threshold | pKd (DLG5_1, Q8TDM6; [2]): below the threshold | pKd (SYNJ2BP, P57105; [2]): 4.59 | pKd (IL16_4, Q14005; [2]): 3.68 | pKd (RADIL, Q96JH8; [2]): below the threshold | pKd (DLG1_3, Q12959; [2]): 3.98 | pKd (MPP6, Q9NZW5; [2]): below the threshold | pKd (NHERF4_1, Q86UT5-2; [2]): 3.86 | pKd (NOS1, P29475; [2]): below the threshold | pKd (SNX27, Q96L92; [2]): 4.76 | pKd (APBA3_1, O96018; [2]): below the threshold | pKd (DLG3_3, Q92796; [2]): 3.69 | pKd (Inadl_2, Q8NI35; [2]): below the threshold | pKd (MAST1, Q9Y2H9; [2]): 3.92 | pKd (LRRC7, Q96NW7; [2]): below the threshold | pKd (MPDZ_10, O75970; [2]): below the threshold | pKd (AHNAK1, Q09666; [2]): below the threshold

NTANRRTTPV [CACNG2, Q9Y698]
pKd (Inadl_9, Q8NI35; [1]): below the threshold | pKd (LIN7B, Q9HAP6; [1]): below the threshold | pKd (Inadl_6, Q8NI35; [1]): below the threshold | pKd (DLG4_3, P78352; [1]): 4.69 | pKd (FRMPD3, Q5JV73; [1]): below the threshold | pKd (PARD3_3, Q8TEW0; [1]): below the threshold | pKd (PARD3B_1, Q8TEW8; [1]): below the threshold | pKd (SNTG2, Q9NY99; [1]): below the threshold | pKd (MAGI1_2, Q96QZ7; [1]): 4.72 | pKd (NHERF2_2, Q15599; [1]): below the threshold | pKd (TJP2_1, Q9UDY2; [1]): 3.9 | pKd (GRASP, Q7Z6J2; [1]): 4.18 | pKd (DLG5_1, Q8TDM6; [1]): below the threshold | pKd (SYNJ2BP, P57105; [1]): 5.08 | pKd (IL16_4, Q14005; [1]): below the threshold | pKd (RADIL, Q96JH8; [1]): below the threshold | pKd (DLG1_3, Q12959; [1]): 4.16 | pKd (MPP6, Q9NZW5; [1]): below the threshold | pKd (NHERF4_1, Q86UT5-2; [1]): below the threshold | pKd (NOS1, P29475; [1]): 3.99 | pKd (SNX27, Q96L92; [1]): 4.99 | pKd (APBA3_1, O96018; [1]): below the threshold | pKd (DLG3_3, Q92796; [1]): 4.69 | pKd (Inadl_2, Q8NI35; [1]): below the threshold | pKd (MAST1, Q9Y2H9; [1]): below the threshold | pKd (LRRC7, Q96NW7; [1]): below the threshold | pKd (MPDZ_10, O75970; [1]): 3.87 | pKd (AHNAK1, Q09666; [1]): below the threshold
